Measurements taken from patent publication US20250304643A1 (BAINAN BIOTECH, published 2025).
[ ]: non-standard residue; d: D form. The star is where a group is joined. C16 diacid = O=C(O)CCCCCCCCCCCCCCC(=O)*; Palmitoyl = CCCCCCCCCCCCCCCC(=O)*; Aib = CC(C)(N)C(=O)O

T1: human glucagon-like peptide-2 receptor (human, UniProt O95838 1-553)
T1 sequence (looked up): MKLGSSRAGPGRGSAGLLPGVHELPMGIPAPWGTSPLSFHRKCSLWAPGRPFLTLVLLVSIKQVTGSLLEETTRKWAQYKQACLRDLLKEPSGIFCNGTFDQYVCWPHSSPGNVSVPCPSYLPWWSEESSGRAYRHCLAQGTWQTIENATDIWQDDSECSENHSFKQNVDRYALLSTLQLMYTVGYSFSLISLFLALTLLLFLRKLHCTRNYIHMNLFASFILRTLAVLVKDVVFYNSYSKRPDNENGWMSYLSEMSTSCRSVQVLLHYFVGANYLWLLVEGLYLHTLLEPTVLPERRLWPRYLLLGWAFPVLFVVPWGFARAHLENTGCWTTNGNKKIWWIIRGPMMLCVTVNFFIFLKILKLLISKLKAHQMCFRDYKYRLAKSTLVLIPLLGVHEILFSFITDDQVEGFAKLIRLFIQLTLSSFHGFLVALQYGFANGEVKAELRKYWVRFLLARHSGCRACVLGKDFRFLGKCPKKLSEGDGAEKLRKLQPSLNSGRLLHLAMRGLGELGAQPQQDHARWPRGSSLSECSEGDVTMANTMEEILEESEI

T2: human glucose-dependent insulinotropic polypeptide receptor (human, UniProt P48546 22-466)
T2 sequence (looked up): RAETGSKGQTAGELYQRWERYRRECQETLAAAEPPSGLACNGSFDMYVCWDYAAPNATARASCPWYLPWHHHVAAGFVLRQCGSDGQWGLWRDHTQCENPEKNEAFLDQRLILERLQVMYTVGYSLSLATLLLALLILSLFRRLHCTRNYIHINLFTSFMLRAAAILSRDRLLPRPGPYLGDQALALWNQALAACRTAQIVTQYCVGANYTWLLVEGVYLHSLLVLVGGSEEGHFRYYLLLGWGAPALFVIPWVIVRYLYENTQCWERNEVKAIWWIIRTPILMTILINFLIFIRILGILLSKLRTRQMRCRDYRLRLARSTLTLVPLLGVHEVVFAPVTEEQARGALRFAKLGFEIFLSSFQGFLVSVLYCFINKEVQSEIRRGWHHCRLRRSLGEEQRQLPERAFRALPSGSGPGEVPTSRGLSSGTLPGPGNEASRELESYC

B1: Compound no. 23 (peptide)
peptide: {C16 diacid}-H[Aib]DGTFISDYST[Aib]LDKLAARDFINWLIETKITK-OH
SMILES: CC[C@H](C)[C@H](NC(=O)[C@H](Cc1ccccc1)NC(=O)[C@H](CC(=O)O)NC(=O)[C@H](CCCNC(=N)N)NC(=O)[C@H](C)NC(=O)[C@H](C)NC(=O)[C@H](CC(C)C)NC(=O)[C@H](CCCCN)NC(=O)[C@H](CC(=O)O)NC(=O)[C@H](CC(C)C)NC(=O)C(C)(C)NC(=O)[C@@H](NC(=O)[C@H](CO)NC(=O)[C@H](Cc1ccc(O)cc1)NC(=O)[C@H](CC(=O)O)NC(=O)[C@H](CO)NC(=O)[C@@H](NC(=O)[C@H](Cc1ccccc1)NC(=O)[C@@H](NC(=O)CNC(=O)[C@H](CC(=O)O)NC(=O)C(C)(C)NC(=O)[C@H](Cc1c[nH]cn1)NC(=O)CCCCCCCCCCCCCCC(=O)O)[C@@H](C)O)[C@@H](C)CC)[C@@H](C)O)C(=O)N[C@@H](CC(N)=O)C(=O)N[C@@H](Cc1c[nH]c2ccccc12)C(=O)N[C@@H](CC(C)C)C(=O)N[C@H](C(=O)N[C@@H](CCC(=O)O)C(=O)N[C@H](C(=O)N[C@@H](CCCCN)C(=O)N[C@H](C(=O)N[C@H](C(=O)N[C@@H](CCCCN)C(=O)O)[C@@H](C)O)[C@@H](C)CC)[C@@H](C)O)[C@@H](C)CC
B2: Compound no. 22 (peptide)
peptide: {C16 diacid}-H[Aib]DGTFISDYST[Aib]LDKLAARDFIEWLIQTKITK-OH
SMILES: CC[C@H](C)[C@H](NC(=O)[C@H](Cc1ccccc1)NC(=O)[C@H](CC(=O)O)NC(=O)[C@H](CCCNC(=N)N)NC(=O)[C@H](C)NC(=O)[C@H](C)NC(=O)[C@H](CC(C)C)NC(=O)[C@H](CCCCN)NC(=O)[C@H](CC(=O)O)NC(=O)[C@H](CC(C)C)NC(=O)C(C)(C)NC(=O)[C@@H](NC(=O)[C@H](CO)NC(=O)[C@H](Cc1ccc(O)cc1)NC(=O)[C@H](CC(=O)O)NC(=O)[C@H](CO)NC(=O)[C@@H](NC(=O)[C@H](Cc1ccccc1)NC(=O)[C@@H](NC(=O)CNC(=O)[C@H](CC(=O)O)NC(=O)C(C)(C)NC(=O)[C@H](Cc1c[nH]cn1)NC(=O)CCCCCCCCCCCCCCC(=O)O)[C@@H](C)O)[C@@H](C)CC)[C@@H](C)O)C(=O)N[C@@H](CCC(=O)O)C(=O)N[C@@H](Cc1c[nH]c2ccccc12)C(=O)N[C@@H](CC(C)C)C(=O)N[C@H](C(=O)N[C@@H](CCC(N)=O)C(=O)N[C@H](C(=O)N[C@@H](CCCCN)C(=O)N[C@H](C(=O)N[C@H](C(=O)N[C@@H](CCCCN)C(=O)O)[C@@H](C)O)[C@@H](C)CC)[C@@H](C)O)[C@@H](C)CC
B3: Compound no. 21 (peptide)
peptide: {C16 diacid}-H[Aib]EGTFISDYST[Aib]LDKLAARDFINWLIQTKITK-OH
SMILES: CC[C@H](C)[C@H](NC(=O)[C@H](Cc1ccccc1)NC(=O)[C@H](CC(=O)O)NC(=O)[C@H](CCCNC(=N)N)NC(=O)[C@H](C)NC(=O)[C@H](C)NC(=O)[C@H](CC(C)C)NC(=O)[C@H](CCCCN)NC(=O)[C@H](CC(=O)O)NC(=O)[C@H](CC(C)C)NC(=O)C(C)(C)NC(=O)[C@@H](NC(=O)[C@H](CO)NC(=O)[C@H](Cc1ccc(O)cc1)NC(=O)[C@H](CC(=O)O)NC(=O)[C@H](CO)NC(=O)[C@@H](NC(=O)[C@H](Cc1ccccc1)NC(=O)[C@@H](NC(=O)CNC(=O)[C@H](CCC(=O)O)NC(=O)C(C)(C)NC(=O)[C@H](Cc1c[nH]cn1)NC(=O)CCCCCCCCCCCCCCC(=O)O)[C@@H](C)O)[C@@H](C)CC)[C@@H](C)O)C(=O)N[C@@H](CC(N)=O)C(=O)N[C@@H](Cc1c[nH]c2ccccc12)C(=O)N[C@@H](CC(C)C)C(=O)N[C@H](C(=O)N[C@@H](CCC(N)=O)C(=O)N[C@H](C(=O)N[C@@H](CCCCN)C(=O)N[C@H](C(=O)N[C@H](C(=O)N[C@@H](CCCCN)C(=O)O)[C@@H](C)O)[C@@H](C)CC)[C@@H](C)O)[C@@H](C)CC
B4: Compound no. 17 (peptide)
peptide: {C16 diacid}-H[Aib]DGTFISDYST[Aib]LDNLAARDFINWLIQTKITK-OH
SMILES: CC[C@H](C)[C@H](NC(=O)[C@H](Cc1ccccc1)NC(=O)[C@H](CC(=O)O)NC(=O)[C@H](CCCNC(=N)N)NC(=O)[C@H](C)NC(=O)[C@H](C)NC(=O)[C@H](CC(C)C)NC(=O)[C@H](CC(N)=O)NC(=O)[C@H](CC(=O)O)NC(=O)[C@H](CC(C)C)NC(=O)C(C)(C)NC(=O)[C@@H](NC(=O)[C@H](CO)NC(=O)[C@H](Cc1ccc(O)cc1)NC(=O)[C@H](CC(=O)O)NC(=O)[C@H](CO)NC(=O)[C@@H](NC(=O)[C@H](Cc1ccccc1)NC(=O)[C@@H](NC(=O)CNC(=O)[C@H](CC(=O)O)NC(=O)C(C)(C)NC(=O)[C@H](Cc1c[nH]cn1)NC(=O)CCCCCCCCCCCCCCC(=O)O)[C@@H](C)O)[C@@H](C)CC)[C@@H](C)O)C(=O)N[C@@H](CC(N)=O)C(=O)N[C@@H](Cc1c[nH]c2ccccc12)C(=O)N[C@@H](CC(C)C)C(=O)N[C@H](C(=O)N[C@@H](CCC(N)=O)C(=O)N[C@H](C(=O)N[C@@H](CCCCN)C(=O)N[C@H](C(=O)N[C@H](C(=O)N[C@@H](CCCCN)C(=O)O)[C@@H](C)O)[C@@H](C)CC)[C@@H](C)O)[C@@H](C)CC
B5: Compound no. 20 (peptide)
peptide: {C16 diacid}-H[Aib]DGTFISDYST[Aib]LDALAARDFIEWLIQTKITK-OH
SMILES: CC[C@H](C)[C@H](NC(=O)[C@H](Cc1ccccc1)NC(=O)[C@H](CC(=O)O)NC(=O)[C@H](CCCNC(=N)N)NC(=O)[C@H](C)NC(=O)[C@H](C)NC(=O)[C@H](CC(C)C)NC(=O)[C@H](C)NC(=O)[C@H](CC(=O)O)NC(=O)[C@H](CC(C)C)NC(=O)C(C)(C)NC(=O)[C@@H](NC(=O)[C@H](CO)NC(=O)[C@H](Cc1ccc(O)cc1)NC(=O)[C@H](CC(=O)O)NC(=O)[C@H](CO)NC(=O)[C@@H](NC(=O)[C@H](Cc1ccccc1)NC(=O)[C@@H](NC(=O)CNC(=O)[C@H](CC(=O)O)NC(=O)C(C)(C)NC(=O)[C@H](Cc1c[nH]cn1)NC(=O)CCCCCCCCCCCCCCC(=O)O)[C@@H](C)O)[C@@H](C)CC)[C@@H](C)O)C(=O)N[C@@H](CCC(=O)O)C(=O)N[C@@H](Cc1c[nH]c2ccccc12)C(=O)N[C@@H](CC(C)C)C(=O)N[C@H](C(=O)N[C@@H](CCC(N)=O)C(=O)N[C@H](C(=O)N[C@@H](CCCCN)C(=O)N[C@H](C(=O)N[C@H](C(=O)N[C@@H](CCCCN)C(=O)O)[C@@H](C)O)[C@@H](C)CC)[C@@H](C)O)[C@@H](C)CC
B6: Compound no. 19 (peptide)
peptide: {C16 diacid}-H[Aib]EGTFISDYST[Aib]LDNLAARDFINWLIQTKITK-OH
SMILES: CC[C@H](C)[C@H](NC(=O)[C@H](Cc1ccccc1)NC(=O)[C@H](CC(=O)O)NC(=O)[C@H](CCCNC(=N)N)NC(=O)[C@H](C)NC(=O)[C@H](C)NC(=O)[C@H](CC(C)C)NC(=O)[C@H](CC(N)=O)NC(=O)[C@H](CC(=O)O)NC(=O)[C@H](CC(C)C)NC(=O)C(C)(C)NC(=O)[C@@H](NC(=O)[C@H](CO)NC(=O)[C@H](Cc1ccc(O)cc1)NC(=O)[C@H](CC(=O)O)NC(=O)[C@H](CO)NC(=O)[C@@H](NC(=O)[C@H](Cc1ccccc1)NC(=O)[C@@H](NC(=O)CNC(=O)[C@H](CCC(=O)O)NC(=O)C(C)(C)NC(=O)[C@H](Cc1c[nH]cn1)NC(=O)CCCCCCCCCCCCCCC(=O)O)[C@@H](C)O)[C@@H](C)CC)[C@@H](C)O)C(=O)N[C@@H](CC(N)=O)C(=O)N[C@@H](Cc1c[nH]c2ccccc12)C(=O)N[C@@H](CC(C)C)C(=O)N[C@H](C(=O)N[C@@H](CCC(N)=O)C(=O)N[C@H](C(=O)N[C@@H](CCCCN)C(=O)N[C@H](C(=O)N[C@H](C(=O)N[C@@H](CCCCN)C(=O)O)[C@@H](C)O)[C@@H](C)CC)[C@@H](C)O)[C@@H](C)CC

The binders below were run against T1, human glucagon-like peptide-2 receptor (assay: cell-based or functional assay).

Efficacy GLP-2R [%]	logEC50 GLP-2R	Binder
64	–	Palmitoyl-HADGTFISDYSTILD[Aib]LAARDFINWLIQTKITKNDWKHNITQ-OH [Compound no. 16]
86	8.8	B1
95	–	B2
58	–	B3
70	–	Palmitoyl-HADGTFISDYSTILELLAARDFINWLIQTKITKNDWKHNITQ-OH [Compound no. 15]
90	–	B4
88	–	B5
81	–	B6

Each binder was assayed against T2, human glucose-dependent insulinotropic … (assay: cell-based or functional assay).

Efficacy GIPR [%]	Binder
99	Palmitoyl-HADGTFISDYSTILD[Aib]LAARDFINWLIQTKITKNDWKHNITQ-OH [Compound no. 16]
107	B1
91	B2
86	B3
106	Palmitoyl-HADGTFISDYSTILELLAARDFINWLIQTKITKNDWKHNITQ-OH [Compound no. 15]
98	B4
93	B5
98	B6
